Source: the supplement of paper PMC11246515
± gives the standard deviation of the averaged measurements.

Experiment: total protein half-life in vivo (active degradation + dilution); higher = more stable protein
[1] = E. coli NCM3722 delta-clpP, growth: N-lim chemostat, doubling time 6 h
[2] = E. coli NCM3722 delta-clpP delta-lon delta-hslV, growth: N-lim chemostat, doubling time 6 h
[3] = E. coli NCM3722 delta-hslV, growth: N-lim chemostat, doubling time 6 h
[4] = E. coli NCM3722 delta-lon, growth: N-lim chemostat, doubling time 6 h
[5] = E. coli NCM3722 delta-smpB, growth: N-lim chemostat, doubling time 6 h
[6] = wild type E. coli NCM3722, growth: C-lim chemostat, doubling time 3 h
[7] = wild type E. coli NCM3722, growth: C-lim chemostat, doubling time 6 h
[8] = wild type E. coli NCM3722, growth: C-lim chemostat, doubling time 12 h
[9] = wild type E. coli NCM3722, growth: N-lim chemostat, doubling time 6 h
[10] = wild type E. coli NCM3722, growth: N-lim chemostat, doubling time 12 h
[11] = wild type E. coli NCM3722, growth: P-lim chemostat, doubling time 6 h
[12] = wild type E. coli NCM3722, growth: P-lim chemostat, doubling time 12 h

Sequence | total protein half-life in vivo [1] | total protein half-life in vivo [2] | total protein half-life in vivo [3] | total protein half-life in vivo [4] | total protein half-life in vivo [5] | total protein half-life in vivo [6] | total protein half-life in vivo [7] | total protein half-life in vivo [8] | total protein half-life in vivo [9] | total protein half-life in vivo [10] | total protein half-life in vivo [11] | total protein half-life in vivo [12]
MKTLIRKFSRTAITVVLVILAFIAIFNAWVYYTESPWTRDARFSADVVAIAPDVSGLITQVNVHDNQLVKKGQILFTIDQPRYQKALEEAQADVAYYQVLAQEKRQEAGRRNRLGVQAMSREEIDQANNVLQTVLHQLAKAQATRDLAKLDLERTVIRAPADGWVTNLNVYTGEFITRGSTAVALVKQNSFYVLAYMEETKLEGVRPGYRAEITPLGSNKVLKGTVDSVAAGVTNASSTRDDKGMATIDSNLEWVRLAQRVPVRIRLDNQQENIWPAGTTATVVVTGKQDRDESQDSFFRKMAHRLREFG | 5.51 h |  |  |  |  |  |  |  |  |  |  | 
MSHLDNGFRSLTLQRFPATDDVNPLQAWEAADEYLLQQLDDTEIRGPVLILNDAFGALSCALAEHKPYSIGDSYISELATRENLRLNGIDESSVKFLDSTADYPQQPGVVLIKVPKTLALLEQQLRALRKVVTSDTRIIAGAKARDIHTSTLELFEKVLGPTTTTLAWKKARLINCTFNEPQLADAPQTVSWKLEGTDWTIHNHANVFSRTGLDIGARFFMQHLPENLEGEIVDLGCGNGVIGLTLLDKNPQAKVVFVDESPMAVASSRLNVETNMPEALDRCEFMINNALSGVEPFRFNAVLCNPPFHQQHALTDNVAWEMFHHARRCLKINGELYIVANRHLDYFHKLKKIFGNCTTIATNNKFVVLKAVKLGRRR | 5.19 ± 0.25 h | 5.55 ± 0.53 h | 5.29 ± 0.23 h | 5.64 ± 0.14 h | 4.7 ± 0.66 h | 3.05 ± 0.51 h | 5.87 ± 0.088 h | 11.9 ± 1.5 h | 5.175 ± 0.041 h | 8.16 ± 1.4 h | 5.7 h | 
MSIDWNWGIFLQQAPFGNTTYLGWIWSGFQVTIALSICAWIIAFLVGSFFGILRTVPNRFLSGLGTLYVELFRNVPLIVQFFTWYLVIPELLPEKIGMWFKAELDPNIQFFLSSMLCLGLFTAARVCEQVRAAIQSLPRGQKNAALAMGLTLPQAYRYVLLPNAYRVIVPPMTSEMMNLVKNSAIASTIGLVDMAAQAGKLLDYSAHAWESFTAITLAYVLINAFIMLVMTLVERKVRLPGNMGGK [P0AER3] | 5.73 ± 0.57 h | 6.3 ± 0.68 h | 7.02 ± 1.3 h | 6.414 ± 0.029 h | 5.64 ± 0.34 h | 3.1 ± 0.078 h | 5.71 ± 1.4 h | 12.4 h | 5.35 ± 0.4 h | 12.1 ± 4.6 h | 6.73 h | 12.4 ± 1.9 h
MHLRHLFSSRLRGSLLLGSLLVVSSFSTQAAEEMLRKAVGKGAYEMAYSQQENALWLATSQSRKLDKGGVVYRLDPVTLEVTQAIHNDLKPFGATINNTTQTLWFGNTVNSAVTAIDAKTGEVKGRLVLDDRKRTEEVRPLQPRELVADDATNTVYISGIGKESVIWVVDGGNIKLKTAIQNTGKMSTGLALDSEGKRLYTTNADGELITIDTADNKILSRKKLLDDGKEHFFINISLDTARQRAFITDSKAAEVLVVDTRNGNILAKVAAPESLAVLFNPARNEAYVTHRQAGKVSVIDAKSYKVVKTFDTPTHPNSLALSADGKTLYVSVKQKSTKQQEATQPDDVIRIAL | 5.877 ± 0.042 h | 5.6 ± 0.52 h | 5.99 ± 0.71 h | 5.44 ± 0.31 h | 5.53 ± 0.97 h | 3.14 ± 0.065 h | 6.05 ± 0.6 h | 12.2 ± 1.1 h | 5.63 ± 0.093 h | 11.5 ± 1.1 h | 5.44 ± 0.17 h | 11.4 ± 0.18 h
MIHSSVKRWGNSPAVRIPATLMQALNLNIDDEVKIDLVDGKLIIEPVRKEPVFTLAELVNDITPENLHENIDWGEPKDKEVW [P0AE72] | 2.31 ± 0.28 h | 5.19 ± 0.15 h | 2.17 h | 3.17 h | 2.35 h |  | 5.66 h |  | 1.94 h | 5.05 ± 2.4 h | 1.3 h | 4.48 h
MVRRLTSPRLEFEAAAIYEYPEHLRSFLNDLPTRPGVYLFHGESDTMPLYIGKSVNIRSRVLSHLRTPDEAAMLRQSRRISWICTAGEIGALLLEARLIKEQQPLFNKRLRRNRQLCALQLNEKRVDVVYAKEVDFSRAPNLFGLFANRRAALQALQTIADEQKLCYGLLGLEPLSRGRACFRSALKRCAGACCGKESHEEHALRLRQSLERLRVVCWPWQGAVALKEQHPEMTQYHIIQNWLWLGAVNSLEEATTLIRTPAGFDHDGYKILCKPLLSGNYEITELDPANDQRAS |  | 5.53 ± 1.1 h | 1.43 h |  | 0.89 h | 1.06 h |  | 1.93 h | 1.6 ± 0.079 h |  | 1.28 h | 
MSLSRAAIVDQLKEIVGADRVITDETVLKKNSIDRFRKFPDIHGIYTLPIPAAVVKLGSTEQVSRVLNFMNAHKINGVPRTGASATEGGLETVVENSVVLDGSAMNQIINIDIENMQATAQCGVPLEVLENALREKGYTTGHSPQSKPLAQMGGLVATRSIGQFSTLYGAIEDMVVGLEAVLADGTVTRIKNVPRRAAGPDIRHIIIGNEGALCYITEVTVKIFKFTPENNLFYGYILEDMKTGFNILREIMVEGYRPSIARLYDAEDGTQHFTHFADGKCVLIFMAEGNPRIAKVTGEGIAEIVARYPQCQRVDSKLIETWFNNLNWGPDKVAAERVQILKTGNMGFTTEVSGCWSCIHEIYESVINRIRTEFPHADDITMLGGHSSHSYQNGTNMYFVYDYNVVDCKPEEEIDKYHNPLNKIICEETIRLGGSMVHHHGIGKHRVHWSKLEHGSAWALLEGLKKQFDPNGIMNTGTIYPIEK |  |  |  |  |  | 3.54 h |  |  |  |  |  | 
MSEAEARPTNFIRQIIDEDLASGKHTTVHTRFPPEPNGYLHIGHAKSICLNFGIAQDYKGQCNLRFDDTNPVKEDIEYVESIKNDVEWLGFHWSGNVRYSSDYFDQLHAYAIELINKGLAYVDELTPEQIREYRGTLTQPGKNSPYRDRSVEENLALFEKMRAGGFEEGKACLRAKIDMASPFIVMRDPVLYRIKFAEHHQTGNKWCIYPMYDFTHCISDALEGITHSLCTLEFQDNRRLYDWVLDNITIPVHPRQYEFSRLNLEYTVMSKRKLNLLVTDKHVEGWDDPRMPTISGLRRRGYTAASIREFCKRIGVTKQDNTIEMASLESCIREDLNENAPRAMAVIDPVKLVIENYQGEGEMVTMPNHPNKPEMGSRQVPFSGEIWIDRADFREEANKQYKRLVLGKEVRLRNAYVIKAERVEKDAEGNITTIFCTYDADTLSKDPADGRKVKGVIHWVSAAHALPVEIRLYDRLFSVPNPGAADDFLSVINPESLVIKQGFAEPSLKDAVAGKAFQFEREGYFCLDSRHSTAEKPVFNRTVGLRDTWAKVGE | 5.11 ± 0.2 h | 5.89 ± 0.95 h | 4.97 ± 0.059 h | 5.31 ± 0.48 h | 4.92 ± 0.16 h | 3.11 ± 0.31 h | 6.39 ± 0.22 h | 11.47 ± 0.028 h | 5.25 ± 0.2 h | 9.02 ± 0.47 h | 5.959 ± 0.047 h | 12.1 ± 0.73 h
